According to paper PMC10121563 (2023):

T1: GST::OsABI5 fusion protein (Oryza sativa subsp. japonica (Rice), UniProt Q8RZ35)
T1 chain: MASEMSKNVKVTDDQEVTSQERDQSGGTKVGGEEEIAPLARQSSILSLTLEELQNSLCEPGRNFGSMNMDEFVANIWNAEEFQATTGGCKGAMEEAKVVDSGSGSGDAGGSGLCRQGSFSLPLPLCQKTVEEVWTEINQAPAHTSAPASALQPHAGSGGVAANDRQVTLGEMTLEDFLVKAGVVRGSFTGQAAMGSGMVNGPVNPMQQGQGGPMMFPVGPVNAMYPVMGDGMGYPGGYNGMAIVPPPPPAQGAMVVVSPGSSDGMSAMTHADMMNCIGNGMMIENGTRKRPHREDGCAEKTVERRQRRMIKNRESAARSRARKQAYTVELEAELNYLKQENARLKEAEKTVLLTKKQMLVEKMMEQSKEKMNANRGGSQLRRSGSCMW


Target: T1, GST::OsABI5 fusion protein
Test: GST pull-down

Binder | binding result
MBP::OsJAZ6 fusion protein (protein) MASAKSGERGSSSFAMACSLLSRYVRQNGAAAGELGLGIRGEADANKGKETMELFPQNSGFGSEAAAVKETPDAREQEKRQLTIFYGGKVLVFDDFPAEKAKDLMQMASKSSSTAQNCVLLPSSATATVADNTKVSAVPAPASALPVAQANAPKPVRPNAADLPQARKASLHRFLEKRKDRLQAKAPYQGSPSDASPVKKELQESQPWLGLGPQVAAPDLSLRQESSQ | binds
MBP::OsJAZ7 fusion protein (protein) MAASARPVGVGGERATSFAMACSLLSRYVRQNGAAAAELGLGIRGEGEAPRAAPATMSLLPGEAERKKETMELFPQSAGFGQQDAITADSAADAREQEPEKRQLTIFYGGKVLVFNDFPADKAKGLMQLASKGSPVAPQNAAAPAPAAVTDNTKAPMAVPAPVSSLPTAQADAQKPARANASDMPIARKASLHRFLEKRKDRLNAKTPYQASPSDATPVKKEPESQPWLGLGPNAVVKPIERGQ | binds
